From IntAct's records for PubMed 17998537

B1: Mitochondrial division protein 1 (Saccharomyces cerevisiae), P47025 (parent)
chain: MSVNDQITHIGKTLSTTASAFLNYQKSNSNTQDVLTNNGPYKNLLSNTVNNASSTSYFYKRTEHGRFVKNASNTFEDIYSKTRRGDVFRNKFTDNKTCFRMLTYISDDLLNEIPTKEGLKSDADGKLLTEGGENENLRKNASKKETSLFQGFKSYLPIAELAIENTERLNYDTNGTSGTVGAKDVMSKTNERDEIHTELPNFQDSFLIPPGVETKKISSSYSPSALKSFSQTLVNSLEFLNIQKNSTLSEIRDIEVEVENLRQKKEKLLGKIANIEQNQLLLEDNLKQIDDRLDFLEEYGLEVIEANSDENAEDDGMSERKALKNDAIRNEGVTTESISSEASNLPPRRRQQLRDDNSLNRLGAFYSKSKKRHRKSFPTFQQLYEPGTKIGSIMSTHDDFLTCLDFDAPFGTLCTAGYLDHTVKIWDLSKQNKIGELAGHLATINCMQINRDYGTLVTGGRDAALKLWNLNLAQQLYQETQNLTSPTNHIDSPCVHTFEAHTDEVTALSLDPSFLVSGSQDRTIRQWDLRSGKCLQTIDLSFANVLTTSTNVDLSKSTLLTQRNERPSIGALQSFDAALATGTKDGVVRLWDLRSGKVIRTLKGHTDAITSLKFDSACLVTGSYDRTVRIWDLRTGLLNKFHAYSAPVLSLDLFQENAAVVVADEPSVQIYDSEKDESWSCVEQGNETSVSTVKYKENYMVEGRENGDVNIWAV
partner: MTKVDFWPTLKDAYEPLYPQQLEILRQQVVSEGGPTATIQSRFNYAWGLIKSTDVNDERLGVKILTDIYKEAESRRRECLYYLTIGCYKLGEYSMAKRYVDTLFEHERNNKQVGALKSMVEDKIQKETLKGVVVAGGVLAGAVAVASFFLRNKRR
B2: Mitochondrial fission 1 protein (Saccharomyces cerevisiae), P40515 (parent)
chain: B1 partner
partner: B1 chain
B3: CCR4-associated factor 4 (Saccharomyces cerevisiae), P36130 (parent)
chain: MGSGDTRGESSLVAKPIEIILNKLPHAILAQQQFQKYITSPIYRYLSKLLLFREVAWPESTKDTQKGQVGIFSFQNNYADSATTFRILAHLDEQRYPLPNGAAEKNLPSLFEGFKATVSIIQQRLLLDNVDGATNSDKEKYVQLPDINTGFVNKTYSRIDLTHLLEDVETNVENLSINKTLEMDELTRLDSMINELESRKLKILERVKHIDSKSTNLENDVTLIKDRINFIEEYNLEADREQSLRKQMEEERSSEASSFTQNEEAISSLCDVESKDTRLKDFYKMPHEKSHDKNRQIISETYSRNTTAFRMTIPHGEHGNSITALDFDTPWGTLCSSSYQDRIVKVWDLNHGIQVGELPGHLATVNCMQIDKKNYNMLITGSKDATLKLWDLNLSREIYLDHSPLKEKTEEIVTPCIHNFELHKDEITALSFDSEALVSGSRDKKIFHWDLTTGKCIQQLDLIFTPTHSDIKMPARSLNNGACLLGTEAPMIGALQCYNSALATGTKDGIVRLWDLRVGKPVRLLEGHTDGITSLKFDSEKLVTGSMDNSVRIWDLRTSSILDVIAYDLPVSSLDFDGKLITVGANEGGVNVFNMERDEHWMTPEPPHSLDGDELSRRIAIVKYKDGFLINGHNDGDINVWTL
partner: B1 partner

Variants of: B1
Settings: with fis1_yeast FIS1, P40515

Row | Variant | effect of a mutation on the interaction
1 | F152A | disrupting interaction
2 | F99A;R100A | disrupting interaction
3 | I105A | disrupting interaction
4 | F149A | disrupting interaction
5 | L148A | disrupting interaction

Variants of: B2
Settings: with mdv1_yeast MDV1, P47025

Row | Variant | effect of a mutation on the interaction
6 | MTKVDFWPTLKDAYEPLYPQQLEAARQQVVSEGGPTATIQSRFNYAWGLIKSTDVNDERLGVKILTDIYKEAESRRRECLYYLTIGCYKLGEYSMAKRYVDTLFEHERNNKQVGALKSMVEDKIQKETLKGVVVAGGVLAGAVAVASFFLRNKRR [I24A;L25A] | disrupting interaction
7 | MTKVDFWPTLKDAYEPLYPQQLEILRQQVVSEGGPTATIQSRFNYAAGLIKSTDVNDERLGVKILTDIYKEAESRRRECLYYLTIGCYKLGEYSMAKRYVDTLFEHERNNKQVGALKSMVEDKIQKETLKGVVVAGGVLAGAVAVASFFLRNKRR [W47A] | disrupting interaction
8 | MTKVDFWPTLKDAYEPLYPQQLEILRQQVVSEGGPTATIQSRAAYAWGLIKSTDVNDERLGVKILTDIYKEAESRRRECLYYLTIGCYKLGEYSMAKRYVDTLFEHERNNKQVGALKSMVEDKIQKETLKGVVVAGGVLAGAVAVASFFLRNKRR [F43A;N44A] | disrupting interaction

Variants of: B3
Settings: with fis1_yeast FIS1, P40515

Row | Variant | effect of a mutation on the interaction
9 | F85A;R86A | disrupting interaction strength
10 | F111A | disrupting interaction strength
11 | L110A | disrupting interaction strength
12 | L88A | disrupting interaction strength
13 | F114A | disrupting interaction strength
